Biological target: PRX302 (modified proaerolysin in which the furin site is replaced with a PSA-specific cleavage site) (Aeromonas hydrophilia (engineered variant)) (UniProt P09167)
Assay: cell-based or functional assay

Prostate Specific Antigen (PSA), enzymatically active (from UniProt P07288 25-261) (enzyme)
hemolysis (red blood cells) after pre-incubation of PRX302 with enzymatically active PSA in aqueous buffer: 45 % hemolysis
